The results in this text go back to article PMC10681739, “High-throughput data and modeling reveal insights into the mechanisms of cooperative DNA-binding by transcription factor proteins”.

For the series, the target named is T1, ETS1 (Homo sapiens, UniProt P14921).
T1 sequence: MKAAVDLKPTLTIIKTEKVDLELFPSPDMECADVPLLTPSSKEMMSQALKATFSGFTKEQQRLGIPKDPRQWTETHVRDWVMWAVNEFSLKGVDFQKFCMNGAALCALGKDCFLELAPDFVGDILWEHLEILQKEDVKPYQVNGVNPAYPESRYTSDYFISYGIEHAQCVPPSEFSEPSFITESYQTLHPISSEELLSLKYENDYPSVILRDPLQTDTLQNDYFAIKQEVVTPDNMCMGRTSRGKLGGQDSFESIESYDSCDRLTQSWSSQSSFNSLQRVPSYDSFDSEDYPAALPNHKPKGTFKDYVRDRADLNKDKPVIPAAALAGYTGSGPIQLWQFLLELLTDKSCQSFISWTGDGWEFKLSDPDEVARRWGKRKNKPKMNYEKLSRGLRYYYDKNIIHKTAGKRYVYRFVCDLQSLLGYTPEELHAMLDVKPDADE
In words: gcPBM; 1 nM ETS1. The following applies: tags: N-terminal GST (pDEST15), kept (PMC6008103); label: surface-attached array probe.

B1: Table S2 B row 2489 (dsDNA)
DNA 1: CCTTCCTTCCTGCTGTGTACGTTGGGGTCACAGCAC
DNA 2: GTGCTGTGACCCCAACGTACACAGCAGGAAGGAAGG
B1: the binding signal is 5450 PBM fluorescence, median of replicate spots.

B2: Table S2 B row 717 (dsDNA)
DNA 1: AATCCCGGAAACGCGGATTCAGCGGAGCGCGGCGAC
DNA 2: GTCGCCGCGCTCCGCTGAATCCGCGTTTCCGGGATT
B2: the binding signal is 7670 PBM fluorescence, median of replicate spots.

B3: Table S2 B row 1623 (dsDNA)
DNA 1: ACATTTCCGTTCAGCTCAGTGTTCACGGTGCGAGAC
DNA 2: GTCTCGCACCGTGAACACTGAGCTGAACGGAAATGT
With B3, the binding signal was 32300 PBM fluorescence, median of replicate spots.

B4: Table S2 B row 1299 (dsDNA)
DNA 1: AGGAGTGTCACTTCCTCTTTCCTCACCAGAGCCTCC
DNA 2: GGAGGCTCTGGTGAGGAAAGAGGAAGTGACACTCCT
Turning to B4, the binding signal is 9350 PBM fluorescence, median of replicate spots.

B5: Table S2 B row 3820 (dsDNA)
DNA 1: GGCGGCTTCCGGGATCTGCCTGGCGCTTGCTTTGTC
DNA 2: GACAAAGCAAGCGCCAGGCAGATCCCGGAAGCCGCC
Take B5: the binding signal was 8430 PBM fluorescence, median of replicate spots.

B6: Table S2 B row 1656 (dsDNA)
DNA 1: CTCTGAGCAGGAAGTGACAAATCCACGCAGGGCAGG
DNA 2: CCTGCCCTGCGTGGATTTGTCACTTCCTGCTCAGAG
With B6, the binding signal was 6750 PBM fluorescence, median of replicate spots.

B7: Table S2 B row 559 (dsDNA)
DNA 1: GCAGCATTTCCTGACTTCTTCGCCCCTGTCGTTGCA
DNA 2: TGCAACGACAGGGGCGAAGAAGTCAGGAAATGCTGC
Turning to B7, the binding signal was 6900 PBM fluorescence, median of replicate spots.

B8: Table S2 B row 3759 (dsDNA)
DNA 1: AGCGGCTCCTTCCGGCGGCGCCGGTTCCCTTCCCTC
DNA 2: GAGGGAAGGGAACCGGCGCCGCCGGAAGGAGCCGCT
With B8, the binding signal was 6670 PBM fluorescence, median of replicate spots.

B9: Table S2 B row 1497 (dsDNA)
DNA 1: CAACACAGGATGTGCAGTATTATACGGCAAAGCACT
DNA 2: AGTGCTTTGCCGTATAATACTGCACATCCTGTGTTG
With B9, the binding signal was 6480 PBM fluorescence, median of replicate spots.

B10: Table S2 B row 3509 (dsDNA)
DNA 1: CATGAGAAACATCCTGCCCAACAACCTGACTACAAG
DNA 2: CTTGTAGTCAGGTTGTTGGGCAGGATGTTTCTCATG
B10: the binding signal is 5340 PBM fluorescence, median of replicate spots.

B11: Table S2 B row 3240 (dsDNA)
DNA 1: CTGTCCGCGACATCCGGGACCTGGGGGACCGCCGAT
DNA 2: ATCGGCGGTCCCCCAGGTCCCGGATGTCGCGGACAG
On to B11, for which the binding signal is 8950 PBM fluorescence, median of replicate spots.

B12: Table S2 B row 2565 (dsDNA)
DNA 1: AGCCACATCCTGGACAAAAGCTGTTGTCTAGTAACC
DNA 2: GGTTACTAGACAACAGCTTTTGTCCAGGATGTGGCT
For B12, the binding signal was 7070 PBM fluorescence, median of replicate spots.

B13: Table S2 B row 2669 (dsDNA)
DNA 1: CCCCTCAGCTTCCGGGTGCTGCGCCCGAGGCCGAGA
DNA 2: TCTCGGCCTCGGGCGCAGCACCCGGAAGCTGAGGGG
B13: the binding signal is 9110 PBM fluorescence, median of replicate spots.

B14: Table S2 B row 1677 (dsDNA)
DNA 1: TGTTTTTGTTTCCGTTTACAAACTACAACAAAGGTG
DNA 2: CACCTTTGTTGTAGTTTGTAAACGGAAACAAAAACA
Consider B14, for which the binding signal is 5730 PBM fluorescence, median of replicate spots.

B15: Table S2 B row 2667 (dsDNA)
DNA 1: GGGATCTACTTCCTCTCTCGGCCTCGGGCGCTGCAC
DNA 2: GTGCAGCGCCCGAGGCCGAGAGAGGAAGTAGATCCC
As to B15, the binding signal is 6350 PBM fluorescence, median of replicate spots.

B16: Table S2 B row 2829 (dsDNA)
DNA 1: AGTGTCCGCCGCTTCCTGGTTGCGCGTCAGCGCCCA
DNA 2: TGGGCGCTGACGCGCAACCAGGAAGCGGCGGACACT
B16: the binding signal is 5900 PBM fluorescence, median of replicate spots.

B17: Table S2 B row 771 (dsDNA)
DNA 1: AACAGGAAGTGGTCTTAGAGATCATGGGGTTCAGAG
DNA 2: CTCTGAACCCCATGATCTCTAAGACCACTTCCTGTT
With B17, the binding signal is 7400 PBM fluorescence, median of replicate spots.

B18: Table S2 B row 3063 (dsDNA)
DNA 1: GTATCACTTCCTGTTTTCCTCTGTAGCTTACTGCTG
DNA 2: CAGCAGTAAGCTACAGAGGAAAACAGGAAGTGATAC
As for B18, the binding signal was 30200 PBM fluorescence, median of replicate spots.

B19: Table S2 B row 1777 (dsDNA)
DNA 1: CCTTCCTTCCGCTGGCAGTAACTAGGCAGTGGACAC
DNA 2: GTGTCCACTGCCTAGTTACTGCCAGCGGAAGGAAGG
In the case of B19, the binding signal is 5510 PBM fluorescence, median of replicate spots.

B20: Table S2 B row 1200 (dsDNA)
DNA 1: GGTTCATTTCCTTTTCCTCCTTGGGGTATAAAAGAG
DNA 2: CTCTTTTATACCCCAAGGAGGAAAAGGAAATGAACC
B20: the binding signal is 8120 PBM fluorescence, median of replicate spots.

B21: Table S2 B row 3959 (dsDNA)
DNA 1: AAGGGCAAAGTCACAGCCACTTCCGCCCAGCGCTTC
DNA 2: GAAGCGCTGGGCGGAAGTGGCTGTGACTTTGCCCTT
Take B21: the binding signal is 7470 PBM fluorescence, median of replicate spots.

B22: Table S2 B row 526 (dsDNA)
DNA 1: TTACTTCCTGAGGGTGCACAGGCTGGGGTCGTCTAT
DNA 2: ATAGACGACCCCAGCCTGTGCACCCTCAGGAAGTAA
Turning to B22, the binding signal was 8570 PBM fluorescence, median of replicate spots.

B23: Table S2 B row 2744 (dsDNA)
DNA 1: TTAGCACATCCTGGGTACACAGAGCACAGCCTCCTC
DNA 2: GAGGAGGCTGTGCTCTGTGTACCCAGGATGTGCTAA
B23: the binding signal is 5610 PBM fluorescence, median of replicate spots.

B24: Table S2 B row 1434 (dsDNA)
DNA 1: GGCCGGAAGCGCTCTCGTTGGCCCAGCGGCGCTGGA
DNA 2: TCCAGCGCCGCTGGGCCAACGAGAGCGCTTCCGGCC
B24: the binding signal is 6040 PBM fluorescence, median of replicate spots.

B25: Table S2 B row 3173 (dsDNA)
DNA 1: GACTGCACTTCCTCTGCTTCGAGGTCGGTGCTTAGC
DNA 2: GCTAAGCACCGACCTCGAAGCAGAGGAAGTGCAGTC
For the molecule B25, the binding signal is 6100 PBM fluorescence, median of replicate spots.

B26: Table S2 B row 785 (dsDNA)
DNA 1: ATAGTCTCTTCCTGTGTTGCAAATCACAGGTCCACC
DNA 2: GGTGGACCTGTGATTTGCAACACAGGAAGAGACTAT
With B26, the binding signal was 7860 PBM fluorescence, median of replicate spots.

B27: Table S2 B row 2465 (dsDNA)
DNA 1: CTACGACTTCCGTGATGCCTTACGGTTGCTGTAGCC
DNA 2: GGCTACAGCAACCGTAAGGCATCACGGAAGTCGTAG
In the case of B27, the binding signal was 7160 PBM fluorescence, median of replicate spots.

B28: Table S2 B row 2356 (dsDNA)
DNA 1: CTTCTTCCTGCTGAGACTGATACAGCCCGAAAAGCT
DNA 2: AGCTTTTCGGGCTGTATCAGTCTCAGCAGGAAGAAG
Consider B28, for which the binding signal was 6230 PBM fluorescence, median of replicate spots.

B29: Table S2 B row 16 (dsDNA)
DNA 1: CCACTGCTTCCGCCTTCTCTGCTGGCTGAGGGGAGC
DNA 2: GCTCCCCTCAGCCAGCAGAGAAGGCGGAAGCAGTGG
With B29, the binding signal was 8730 PBM fluorescence, median of replicate spots.

B30: Table S2 B row 2841 (dsDNA)
DNA 1: CCTGTTTCCTGCCATCTGCCCTTCCTTTGGGGTCAA
DNA 2: TTGACCCCAAAGGAAGGGCAGATGGCAGGAAACAGG
For B30, the binding signal is 8210 PBM fluorescence, median of replicate spots.
